What is called Kd is the concentration at which binding is half-saturated. One may read the koff as the first-order rate constant of dissociation. For orientation: kon means a measure of how fast the partners come together.

The record followed here is patent US20230250160A1 (HOBER BIOTECH, published 2023).

Where two headings read alike, the source gives them in different places.

Assay [1] has as its target T1, Human Serum Albumin (human, UniProt P02768 25-609).
T1 construct: also called HSA
In words: SPR Biacore T200, HSA on CM5 chip, ADAPT injected, 1:1 fit. How it is done:
(§1) Sensor-based binding analysis was performed using a Biacore T200 system (GE Healthcare, Stockholm, Sweden). All analyses were conducted using CM-5 sensor chips coated with the target antigen, another irrelevant antigen and HSA. One surface was left as reference. Binding analysis was performed in PBS-T at 25° C. The ADAPT variants were diluted in PBS-T to 500 nM, 250 nM, 125 nM, 62.5 nM and 31.25 nM. The samples were injected at a flow rate of 30 ul/min for 120 s followed by injection of PBS-T for 240 s to monitor the dissociation. Surfaces were regenerated with 10 mM HCl. Kinetic parameters were determined using the Biacore Insight Evaluation software, assuming a 1:1 binding.
A general note: SPR reads the build-up and loss of mass on a sensor chip optically.

Assay [2] has as its target T1, Human Serum Albumin. The description is as above. The method, then:
as §1
This is another data set of the same source.

The target in assay [3] is T2, myeloid-derived growth factor (human (produced in the Human Secretome …, UniProt Q969H8 32-173, limits assumed)).
T2 construct: also called MYDGF; bMYDGF
T2 sequence (looked up): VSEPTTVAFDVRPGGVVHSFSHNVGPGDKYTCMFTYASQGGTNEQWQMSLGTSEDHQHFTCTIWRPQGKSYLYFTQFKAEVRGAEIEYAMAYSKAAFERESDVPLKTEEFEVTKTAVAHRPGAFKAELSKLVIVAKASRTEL
In words: SPR Biacore T200, target on CM5 chip, ADAPT injected, 1:1 fit. The method, then:
as §1
(§2) Variants with sufficient alpha helical structure as well as monomeric elution profiles on the SEC column were further analyzed for binding towards their target protein as well as to HSA. The binding towards the target antigen used in the selection was measured by a multi-cycle analysis using SPR, showing that several binders had affinities in the μM-pM range. […] After target binding had been established, the variants were also evaluated for their ability to simultaneously bind to HSA. This was done either through an SPR capture assay or an experiment where the ADAPT was pre-incubated with saturating conditions of HSA before the binding towards the target was analyzed. […] In total, thirteen of the characterized binders from the selections towards TNFα, PSA, ANG, MYDGF and Insulin could bind both HSA and its target antigen simultaneously. FIG. 5 contains sensorgrams for the thirteen variants in the capture assay.

The target in assay [4] is T2, myeloid-derived growth factor. The assay is described as above. How it is done:
as §1
The source holds these as a separate data set.

Assay [5] addresses T3, angiogenin (human (produced in the Human Secretome …, UniProt P03950 25-147)).
T3 construct: also called bANG
The assay is described as above. The method, then: as §1, §2

In assay [6] the target is T3, angiogenin. The description is as above. The method, then: as §1
The source holds these as a separate data set.

Assay [7] addresses T4, Human recombinant Insulin (human, UniProt P01308 25-54; P01308 90-110, limits assumed).
T4 construct: also called bInsulin
Described as above. How it is done: as §1, §2

The target of assay [8] is T4, Human recombinant Insulin. Described as above. How it is done: as §1
This is another data set of the same source.

Assay [9] addresses T5, Her2 (UniProt P04626 23-652, limits assumed).
T5 construct: also called irrelevant target Her2
The experiment in a line: SPR (Biacore), ADAPT injected alone at 31.25-500 nM over immobilised Her2 (irrelevant target). The method, then:
as §1
Variants with sufficient alpha helical structure as well as monomeric elution profiles on the SEC column were further analyzed for binding towards their target protein as well as to HSA. The binding towards the target antigen used in the selection was measured by a multi-cycle analysis using SPR, showing that several binders had affinities in the μM-pM range. […] After target binding had been established, the variants were also evaluated for their ability to simultaneously bind to HSA. This was done either through an SPR capture assay or an experiment where the ADAPT was pre-incubated with saturating conditions of HSA before the binding towards the target was analyzed. […]

T3 sequence (P03950 25-147 limits assumed): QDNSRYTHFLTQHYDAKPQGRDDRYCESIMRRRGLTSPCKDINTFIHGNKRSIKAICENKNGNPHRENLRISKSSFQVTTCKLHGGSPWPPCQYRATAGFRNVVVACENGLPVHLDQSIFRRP
T1 sequence (P02768 25-609 limits assumed): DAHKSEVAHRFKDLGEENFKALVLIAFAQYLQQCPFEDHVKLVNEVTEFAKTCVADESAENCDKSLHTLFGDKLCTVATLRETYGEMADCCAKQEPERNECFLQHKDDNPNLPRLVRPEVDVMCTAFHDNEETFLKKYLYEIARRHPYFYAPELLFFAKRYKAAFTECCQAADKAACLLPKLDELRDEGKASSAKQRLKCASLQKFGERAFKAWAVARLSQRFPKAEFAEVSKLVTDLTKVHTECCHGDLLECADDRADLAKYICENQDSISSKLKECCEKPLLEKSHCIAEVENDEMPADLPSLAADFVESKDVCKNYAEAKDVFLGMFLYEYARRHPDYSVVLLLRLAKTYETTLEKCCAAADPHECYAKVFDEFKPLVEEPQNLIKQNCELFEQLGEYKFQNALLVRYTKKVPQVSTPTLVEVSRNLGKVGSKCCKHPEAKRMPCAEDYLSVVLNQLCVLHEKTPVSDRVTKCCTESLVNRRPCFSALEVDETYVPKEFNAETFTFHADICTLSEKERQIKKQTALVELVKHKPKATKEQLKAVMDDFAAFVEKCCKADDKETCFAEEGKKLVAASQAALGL
T4 sequence (P01308 25-54 limits assumed, chain 1 of 2): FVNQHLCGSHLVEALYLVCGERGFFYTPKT
T4 sequence (P01308 90-110 limits assumed, chain 2 of 2): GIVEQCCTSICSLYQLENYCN

B1: ADAPT variant MYDGF_07 (designed binder)
chain: LWWAKVWAVAELQKYGVSDFYFKLIDKAKTVEGVEALKLHILAALP
For the molecule B1, the dissociation constant (Kd) in assay [1] was 4.7 nM; in assay [2], 4.7 nM; in assay [3], 230 nM; in assay [4] it was 230 nM. Moreover, the koff was determined as 0.00014 s⁻¹ in assay [2] and 0.082 s⁻¹ in assay [4]. The kon in assay [2] amounted to 30000 M⁻¹ s⁻¹; in assay [4] it was 350000 M⁻¹ s⁻¹.

B2: ADAPT variant ANG_06 (designed binder)
chain: LWAAKDDADWELWQYGVSDFYRALIWKAKTVEGVEALKLHILAALP
notes: also called ANG_6
Regarding B2, the Kd in assay [1] is 1.1 nM; in [2] it was 1.1 nM; in assay [5], 4.9 nM; in assay [6] it was 4.9 nM. The koff in assay [2] worked out at 2.6e-05 s⁻¹; in assay [6], 0.00032 s⁻¹. Also, the kon in [2] turned out to be 24000 M⁻¹ s⁻¹; in [6], 65000 M⁻¹ s⁻¹.

B3: ADAPT variant ANG_13 (designed binder)
chain: LHEAKDWADYELWSYGVSDFYRALIWKAKTVEGVEALKLHILAALP
For the molecule B3, the Kd was found to be 2.8 nM in [1], 2.8 nM in assay [2], 0.028 nM in assay [5] and 0.028 nM in assay [6]. The koff in [2] is 6.8e-05 s⁻¹; in [6], 2.9e-06 s⁻¹. Besides, the figures for the kon in assay [2] and in assay [6] were 25000 M⁻¹ s⁻¹ and 110000 M⁻¹ s⁻¹, respectively.

B4: ADAPT variant Insulin_02 (designed binder)
chain: LAIAKAYAQYELSFYGVSDFYRELIVKAKTVEGVEALKLHILAALP
notes: also called INS_02
Regarding B4, the Kd in assay [1] was found to be 1.5 nM; in assay [2], 1.5 nM; in assay [7], 670 nM; in assay [8], 670 nM. For the same molecule, the koff in assay [2] stood at 0.00093 s⁻¹; in assay [8], 0.12 s⁻¹. For the same molecule, the on-rate (kon) is 640000 M⁻¹ s⁻¹ in assay [2] and 180000 M⁻¹ s⁻¹ in assay [8]. For the same molecule, in assay [9], the binding result is “no binding (tested: 500 nM)”.

B5: ADAPT variant MYDGF_08 (designed binder)
chain: LWWAKVSAIKELQAYGVSDFYYMLITKAKTVEGVEALKLHILAALP
As to B5, the Kd is 12 nM in assay [1], 12 nM in assay [2], 180 nM in assay [3] and 180 nM in assay [4]. In addition, the koff in assay [2] was determined as 0.00028 s⁻¹; in assay [4], 0.18 s⁻¹. The kon turned out to be 23000 M⁻¹ s⁻¹ in assay [2] and 1e+06 M⁻¹ s⁻¹ in assay [4].
